Source: patent CN112741804A (SHANGHAI JUNSHI BIOSCIENCES CO LTD; JUNMENG BIOSCIENCES CO …, dated 2021)

Molecular target: T1, human PD-L1 (programmed death-ligand 1), soluble protein (human, UniProt Q9NZQ7 19-238, limits assumed)
T1 construct: also called 人PD-L1; CD274
Experiment: ELISA, PD-L1 coated on plate, HRP anti-human IgG detection

T1 sequence (Q9NZQ7 19-238 limits assumed): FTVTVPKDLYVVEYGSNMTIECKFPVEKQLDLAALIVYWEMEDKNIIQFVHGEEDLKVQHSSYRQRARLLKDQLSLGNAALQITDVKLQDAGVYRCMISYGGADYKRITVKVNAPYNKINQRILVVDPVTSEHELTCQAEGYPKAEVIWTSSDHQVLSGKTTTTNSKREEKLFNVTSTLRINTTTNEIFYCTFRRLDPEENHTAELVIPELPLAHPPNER

B1: JS003 (humanized anti-PD-L1 antibody, clone 30) (antibody, human IgG4 S228P, kappa, V domains shown)
VH: QGQLQESGPSLVKPSQTLSLTCTVSGDSITRGYWNWIRKHPGKGLEYIGYISYTGSTYSNLSLKSRVTISRDTSKNQYYLKLSSVTAADTAVYYCATSTGWLDPVDYWGQGTLVTVSS
VL: DIVMTQSPDSLAVSLGERATINCKASQNVDTSVAWFQQKPGQPPKALIYSASFRYSGVPDRFSGSGSGTDFTLTISSLQAEDVAVYFCQQYYGYPFTFGQGTKLEIKR
notes: Full humanized antibody; Tested from formulation no; 30; also called 人源化抗体30; 抗体30
For B1, which EC50 is on record?
Its EC50 is 0.558 ng/mL.

B2: humanized anti-PD-L1 antibody 38 (clone 38) (antibody, V domains shown)
VH: QGQLQESGPSLVKPSQTLSLTCTVSGDSITRGYWNWIRKPPGKGLEYIGYISYTGSTYSNLSLKSRVTISRDTSKNQYYLKLSSVTAADTAVYYCATSTGWLDPVDYWGQGTLVTVSS
VL: DIQMTQSPSSLSASVGDRVTITCRASQNVDTSVAWFQQKPGKAPKALIYSASFRYSGVPSRFSGSGSGTDFTLTISSLQPEDFATYFCQQYYGYPFTFGQGTKLEIK
Which EC50 does the source give for B2 here?
The EC50 was 0.837 ng/mL.
